Data published in article PMC4109720.

Key:
[1] = molecular target: myc-JIP1-F336A (human) (UniProt Q9UQF2); test: co-IP
[2] = molecular target: myc-JIP1-ΔLIR (human) (UniProt Q9UQF2); test: co-IP

“GFP-LC3 (from UniProt Q9GZQ8 1-120) (natural protein)” showed a percent of the GFP-LC3 binding of wildtype myc-JIP1 (densitometry of co-IP) [1] of 20% and a percent of the GFP-LC3 binding of wildtype myc-JIP1 (densitometry of co-IP) [2] of 20%.
